Bridge positions count the residues as written; N and C are the ends. Square brackets hold non-standard residues; d marks the D form. Ends that are not written are not given here. Oic = O=C(O)[C@@H]1C[C@@H]2CCCC[C@@H]2N1; tBuAla = CC(C)(C)C[C@H](N)C(=O)O; 2Pal = N[C@@H](Cc1ccccn1)C(=O)O; Chg = N[C@H](C(=O)O)C1CCCCC1; PEG4 = NCCOCCOCCOCCOCCC(=O)O; Pen = CC(C)(S)[C@H](N)C(=O)O; Tranexamic = tranexamic acid; NMeC = CN[C@@H](CS)C(=O)O; NMeA = CN[C@@H](C)C(=O)O; Dab = NCC[C@H](N)C(=O)O; Abu = CC[C@H](N)C(=O)O; Sar = CNCC(=O)O
Tests used:
[1] = target: T1, Recombinant human MASP1 enzyme (fragment corresponding to amino acids 297-699, C-terminal His Tag) (human, UniProt P48740 297-699); test: cell-based or functional assay
T1 sequence: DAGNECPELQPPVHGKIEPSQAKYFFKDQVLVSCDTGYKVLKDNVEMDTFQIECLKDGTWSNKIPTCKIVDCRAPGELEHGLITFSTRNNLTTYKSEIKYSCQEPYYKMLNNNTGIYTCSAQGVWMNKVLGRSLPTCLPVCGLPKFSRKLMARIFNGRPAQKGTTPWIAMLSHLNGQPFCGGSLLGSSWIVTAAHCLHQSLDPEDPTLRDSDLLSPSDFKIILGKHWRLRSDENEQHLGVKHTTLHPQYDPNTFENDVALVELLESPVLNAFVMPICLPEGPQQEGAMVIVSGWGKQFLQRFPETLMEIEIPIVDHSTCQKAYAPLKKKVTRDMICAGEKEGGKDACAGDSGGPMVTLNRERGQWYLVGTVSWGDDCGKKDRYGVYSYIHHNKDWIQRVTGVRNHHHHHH

[2] = target: Recombinant human MASP2 enzyme (fragment corresponding to amino acids 297-686, C-terminal His Tag) (human, UniProt O00187 297-686); test: cell-based or functional assay
Sequence of Recombinant human MASP2 enzyme (fragment corresponding to amino acids 297-686, C-terminal His Tag) (O00187 other isoform, or with tags, fused parts or gaps limits assumed): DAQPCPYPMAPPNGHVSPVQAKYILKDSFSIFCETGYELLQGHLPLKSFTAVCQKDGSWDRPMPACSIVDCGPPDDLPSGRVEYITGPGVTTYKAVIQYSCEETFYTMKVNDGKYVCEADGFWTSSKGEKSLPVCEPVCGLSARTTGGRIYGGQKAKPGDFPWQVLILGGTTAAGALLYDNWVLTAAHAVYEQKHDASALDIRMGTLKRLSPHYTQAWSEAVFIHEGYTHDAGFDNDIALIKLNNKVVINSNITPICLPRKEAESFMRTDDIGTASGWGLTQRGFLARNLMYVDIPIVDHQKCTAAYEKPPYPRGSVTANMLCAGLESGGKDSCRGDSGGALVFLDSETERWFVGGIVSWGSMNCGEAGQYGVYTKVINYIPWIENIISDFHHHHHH

B1: ((N-Me)G)-IC+SRSLP-(Oic)-I-(Pen)+IPE-NH2 (peptide)
peptide: [Sar]ICSRSLP[Oic]I[Pen]IPE-NH2
modifications: disulfide 3-11; N-terminus assumed
SMILES: CC[C@H](C)[C@H](NC(=O)CNC)C(=O)N[C@H]1CSSC(C)(C)[C@@H](C(=O)N[C@H](C(=O)N2CCC[C@H]2C(=O)N[C@@H](CCC(=O)O)C(N)=O)[C@@H](C)CC)NC(=O)[C@H]([C@@H](C)CC)NC(=O)[C@@H]2C[C@@H]3CCCC[C@@H]3N2C(=O)[C@@H]2CCCN2C(=O)[C@H](CC(C)C)NC(=O)[C@H](CO)NC(=O)[C@H](CCCNC(=N)N)NC(=O)[C@H](CO)NC1=O
- human MASP1 IC50 [1]: 4.3 nM
- human MASP2 IC50 [2]: 200 nM

B2: ((N-Me)A)-IC+SRSLP-(Oic)-I-(Pen)+IPE-OH (peptide)
peptide: [NMeA]ICSRSLP[Oic]I[Pen]IPE-OH
modifications: disulfide 3-11; N-terminus assumed
SMILES: CC[C@H](C)[C@H](NC(=O)[C@H](C)NC)C(=O)N[C@H]1CSSC(C)(C)[C@@H](C(=O)N[C@H](C(=O)N2CCC[C@H]2C(=O)N[C@@H](CCC(=O)O)C(=O)O)[C@@H](C)CC)NC(=O)[C@H]([C@@H](C)CC)NC(=O)[C@@H]2C[C@@H]3CCCC[C@@H]3N2C(=O)[C@@H]2CCCN2C(=O)[C@H](CC(C)C)NC(=O)[C@H](CO)NC(=O)[C@H](CCCNC(=N)N)NC(=O)[C@H](CO)NC1=O
- human MASP1 IC50 [1]: 3.9 nM
- human MASP2 IC50 [2]: 170 nM

B3: (Abu)-IC+SRSLPP-(Chg)-C+IPD-NH2 (peptide)
peptide: [Abu]ICSRSLPP[Chg]CIPD-NH2
modifications: disulfide 3-11; N-terminus assumed
SMILES: CC[C@H](N)C(=O)N[C@H](C(=O)N[C@H]1CSSC[C@@H](C(=O)N[C@H](C(=O)N2CCC[C@H]2C(=O)N[C@@H](CC(=O)O)C(N)=O)[C@@H](C)CC)NC(=O)[C@H](C2CCCCC2)NC(=O)[C@@H]2CCCN2C(=O)[C@@H]2CCCN2C(=O)[C@H](CC(C)C)NC(=O)[C@H](CO)NC(=O)[C@H](CCCNC(=N)N)NC(=O)[C@H](CO)NC1=O)[C@@H](C)CC
- human MASP1 IC50 [1]: 4.25 nM
- human MASP2 IC50 [2]: 52 nM

Binder: [Sar]ICSRSLP[Oic]I[Pen]I[5‑Azaspiro(2.4)heptane‑1‑carboxylic acid]-OH (disulfide 3-11) [((N-Me)G)-IC+SRSLP-(Oic)-I-(Pen)+I-((5-Azaspiro[2.4]heptane-1-carboxylic acid)-OH]
- human MASP1 IC50 [1]: 4 nM
- human MASP2 IC50 [2]: 57 nM

Binder: AICSRS[tBuAla]PPI[Pen]IP[Tranexamic]-NH2 (disulfide 3-11) [AIC+SRS-((tBu)A)-PPI-(Pen)+IP-(Tranexamic)-NH2]
- human MASP1 IC50 [1]: 4.3 nM
- human MASP2 IC50 [2]: 30 nM

B4: aIC+SRSLP-(Oic)-I-(Pen)+IP-NH2 (peptide)
peptide: [dA]ICSRSLP[Oic]I[Pen]IP-NH2
modifications: disulfide 3-11; N-terminus assumed
SMILES: CC[C@H](C)[C@H](NC(=O)[C@@H](C)N)C(=O)N[C@H]1CSSC(C)(C)[C@@H](C(=O)N[C@H](C(=O)N2CCC[C@H]2C(N)=O)[C@@H](C)CC)NC(=O)[C@H]([C@@H](C)CC)NC(=O)[C@@H]2C[C@@H]3CCCC[C@@H]3N2C(=O)[C@@H]2CCCN2C(=O)[C@H](CC(C)C)NC(=O)[C@H](CO)NC(=O)[C@H](CCCNC(=N)N)NC(=O)[C@H](CO)NC1=O
- human MASP1 IC50 [1]: 4.3 nM
- human MASP2 IC50 [2]: 59 nM

B5: ((N-Me)A)-IC+SRSLP-(Oic)-I-(Pen)+IPQ-OH (peptide)
peptide: [NMeA]ICSRSLP[Oic]I[Pen]IPQ-OH
modifications: disulfide 3-11; N-terminus assumed
SMILES: CC[C@H](C)[C@H](NC(=O)[C@H](C)NC)C(=O)N[C@H]1CSSC(C)(C)[C@@H](C(=O)N[C@H](C(=O)N2CCC[C@H]2C(=O)N[C@@H](CCC(N)=O)C(=O)O)[C@@H](C)CC)NC(=O)[C@H]([C@@H](C)CC)NC(=O)[C@@H]2C[C@@H]3CCCC[C@@H]3N2C(=O)[C@@H]2CCCN2C(=O)[C@H](CC(C)C)NC(=O)[C@H](CO)NC(=O)[C@H](CCCNC(=N)N)NC(=O)[C@H](CO)NC1=O
- human MASP1 IC50 [1]: 4.4 nM
- human MASP2 IC50 [2]: 170 nM

B6: AIC+SRSLPPI-(Pen)+IPD-NH2 (peptide)
peptide: AICSRSLPPI[Pen]IPD-NH2
modifications: disulfide 3-11; N-terminus assumed
SMILES: CC[C@H](C)[C@H](NC(=O)[C@H](C)N)C(=O)N[C@H]1CSSC(C)(C)[C@@H](C(=O)N[C@H](C(=O)N2CCC[C@H]2C(=O)N[C@@H](CC(=O)O)C(N)=O)[C@@H](C)CC)NC(=O)[C@H]([C@@H](C)CC)NC(=O)[C@@H]2CCCN2C(=O)[C@@H]2CCCN2C(=O)[C@H](CC(C)C)NC(=O)[C@H](CO)NC(=O)[C@H](CCCNC(=N)N)NC(=O)[C@H](CO)NC1=O
- human MASP1 IC50 [1]: 4.3 nM
- human MASP2 IC50 [2]: 68 nM

Binder: AICSRS[tBuAla]P[(2S,3aS,6aS)‑Octahydrocyclopenta(b)pyrrole‑2‑carboxylic acid]I[NMeC]IPD-NH2 (disulfide 3-11)
- human MASP1 IC50 [1]: 4.4 nM
- human MASP2 IC50 [2]: 240 nM

B7: AIC+SRS-((tBu)A)-P-(Oic)-I-((N-Me)C)+I-OH (peptide)
peptide: AICSRS[tBuAla]P[Oic]I[NMeC]I-OH
modifications: disulfide 3-11; N-terminus assumed
SMILES: CC[C@H](C)[C@H](NC(=O)[C@@H]1CSSC[C@H](NC(=O)[C@@H](NC(=O)[C@H](C)N)[C@@H](C)CC)C(=O)N[C@@H](CO)C(=O)N[C@@H](CCCNC(=N)N)C(=O)N[C@@H](CO)C(=O)N[C@@H](CC(C)(C)C)C(=O)N2CCC[C@H]2C(=O)N2[C@@H](C[C@@H]3CCCC[C@@H]32)C(=O)N[C@@H]([C@@H](C)CC)C(=O)N1C)C(=O)O
- human MASP1 IC50 [1]: 4.4 nM
- human MASP2 IC50 [2]: 850 nM

B8: (Dab)-IC+SRS-((tBu)A)-PPI-(Pen)+IP-NH2 (peptide)
peptide: [Dab]ICSRS[tBuAla]PPI[Pen]IP-NH2
modifications: disulfide 3-11; N-terminus assumed
SMILES: CC[C@H](C)[C@H](NC(=O)[C@@H](N)CCN)C(=O)N[C@H]1CSSC(C)(C)[C@@H](C(=O)N[C@H](C(=O)N2CCC[C@H]2C(N)=O)[C@@H](C)CC)NC(=O)[C@H]([C@@H](C)CC)NC(=O)[C@@H]2CCCN2C(=O)[C@@H]2CCCN2C(=O)[C@H](CC(C)(C)C)NC(=O)[C@H](CO)NC(=O)[C@H](CCCNC(=N)N)NC(=O)[C@H](CO)NC1=O
- human MASP1 IC50 [1]: 4 nM
- human MASP2 IC50 [2]: 64 nM

B9: ((N-Me)G)-IC+SRSLP-(Oic)-I-(Pen)+IPD-NH2 (peptide)
peptide: [Sar]ICSRSLP[Oic]I[Pen]IPD-NH2
modifications: disulfide 3-11; N-terminus assumed
SMILES: CC[C@H](C)[C@H](NC(=O)CNC)C(=O)N[C@H]1CSSC(C)(C)[C@@H](C(=O)N[C@H](C(=O)N2CCC[C@H]2C(=O)N[C@@H](CC(=O)O)C(N)=O)[C@@H](C)CC)NC(=O)[C@H]([C@@H](C)CC)NC(=O)[C@@H]2C[C@@H]3CCCC[C@@H]3N2C(=O)[C@@H]2CCCN2C(=O)[C@H](CC(C)C)NC(=O)[C@H](CO)NC(=O)[C@H](CCCNC(=N)N)NC(=O)[C@H](CO)NC1=O
- human MASP1 IC50 [1]: 4.05 nM
- human MASP2 IC50 [2]: 150 nM

B10: ((N-Me)A)-IC+SRSLP-(Oic)-I-(Pen)+IPD-OH (peptide)
peptide: [NMeA]ICSRSLP[Oic]I[Pen]IPD-OH
modifications: disulfide 3-11; N-terminus assumed
SMILES: CC[C@H](C)[C@H](NC(=O)[C@H](C)NC)C(=O)N[C@H]1CSSC(C)(C)[C@@H](C(=O)N[C@H](C(=O)N2CCC[C@H]2C(=O)N[C@@H](CC(=O)O)C(=O)O)[C@@H](C)CC)NC(=O)[C@H]([C@@H](C)CC)NC(=O)[C@@H]2C[C@@H]3CCCC[C@@H]3N2C(=O)[C@@H]2CCCN2C(=O)[C@H](CC(C)C)NC(=O)[C@H](CO)NC(=O)[C@H](CCCNC(=N)N)NC(=O)[C@H](CO)NC1=O
- human MASP1 IC50 [1]: 3.9 nM
- human MASP2 IC50 [2]: 160 nM

B11: ((N-Me)G)-IC+SRS-((tBu)A)-PPI-(Pen)+IP-(PEG3(16atoms))-NH2 (peptide)
peptide: [Sar]ICSRS[tBuAla]PPI[Pen]IP[PEG4]-NH2
modifications: disulfide 3-11; N-terminus assumed
SMILES: CC[C@H](C)[C@H](NC(=O)CNC)C(=O)N[C@H]1CSSC(C)(C)[C@@H](C(=O)N[C@H](C(=O)N2CCC[C@H]2C(=O)NCCOCCOCCOCCOCCC(N)=O)[C@@H](C)CC)NC(=O)[C@H]([C@@H](C)CC)NC(=O)[C@@H]2CCCN2C(=O)[C@@H]2CCCN2C(=O)[C@H](CC(C)(C)C)NC(=O)[C@H](CO)NC(=O)[C@H](CCCNC(=N)N)NC(=O)[C@H](CO)NC1=O
- human MASP1 IC50 [1]: 4.35 nM
- human MASP2 IC50 [2]: 65.5 nM

B12: ((N-Me)G)-IC+SRSLP-(Oic)-I-(Pen)+IP-OH (peptide)
peptide: [Sar]ICSRSLP[Oic]I[Pen]IP-OH
modifications: disulfide 3-11; N-terminus assumed
SMILES: CC[C@H](C)[C@H](NC(=O)CNC)C(=O)N[C@H]1CSSC(C)(C)[C@@H](C(=O)N[C@H](C(=O)N2CCC[C@H]2C(=O)O)[C@@H](C)CC)NC(=O)[C@H]([C@@H](C)CC)NC(=O)[C@@H]2C[C@@H]3CCCC[C@@H]3N2C(=O)[C@@H]2CCCN2C(=O)[C@H](CC(C)C)NC(=O)[C@H](CO)NC(=O)[C@H](CCCNC(=N)N)NC(=O)[C@H](CO)NC1=O
- human MASP1 IC50 [1]: 4.2 nM
- human MASP2 IC50 [2]: 230 nM

B13: (2-Pal)-IC+SRS-((tBu)A)-PPI-(Pen)+IPD-NH2 (peptide)
peptide: [2Pal]ICSRS[tBuAla]PPI[Pen]IPD-NH2
modifications: disulfide 3-11; N-terminus assumed
SMILES: CC[C@H](C)[C@H](NC(=O)[C@@H](N)Cc1ccccn1)C(=O)N[C@H]1CSSC(C)(C)[C@@H](C(=O)N[C@H](C(=O)N2CCC[C@H]2C(=O)N[C@@H](CC(=O)O)C(N)=O)[C@@H](C)CC)NC(=O)[C@H]([C@@H](C)CC)NC(=O)[C@@H]2CCCN2C(=O)[C@@H]2CCCN2C(=O)[C@H](CC(C)(C)C)NC(=O)[C@H](CO)NC(=O)[C@H](CCCNC(=N)N)NC(=O)[C@H](CO)NC1=O
- human MASP1 IC50 [1]: 4.4 nM
- human MASP2 IC50 [2]: 68 nM
